Data: patent EP4541814A1

Molecular target: AAV9 viral particles (adeno-associated virus 9)
Assay: SPR (Biacore 8K+), biotinylated ligand on SA chip (4128 RU), AAV9 2E12 vp/ml

## CaptureSelect Biotin Anti-AAV9 Conjugate (ThermoFisher Scientific)
  AAV9 capacity, 2E12 vp/ml (RU): 8860 RU
